Assay results from IntAct's records for PubMed 29039417.

B1: Protein PTHB1 (Homo sapiens), Q3SYG4 (parent)
chain: MSLFKARDWWSTILGDKEEFDQGCLCLANVDNSGNGQDKIIVGSFMGYLRIFSPHPAKTGDGAQAEDLLLEVDLRDPVLQVEVGKFVSGTEMLHLAVLHSRKLCVYSVSGTLGNVEHGNQCQMKLMYEHNLQRTACNMTYGSFGGVKGRDLICIQSMDGMLMVFEQESYAFGRFLPGFLLPGPLAYSSRTDSFLTVSSCQQVESYKYQVLAFATDADKRQETEQQKLGSGKRLVVDWTLNIGEQALDICIVSFNQSASSVFVLGERNFFCLKDNGQIRFMKKLDWSPSCFLPYCSVSEGTINTLIGNHNNMLHIYQDVTLKWATQLPHIPVAVRVGCLHDLKGVIVTLSDDGHLQCSYLGTDPSLFQAPNVQSRELNYDELDVEMKELQKIIKDVNKSQGVWPMTEREDDLNVSVVVSPNFDSVSQATDVEVGTDLVPSVTVKVTLQNRVILQKAKLSVYVQPPLELTCDQFTFEFMTPDLTRTVSFSVYLKRSYTPSELEGNAVVSYSRPTDRNPDGIPRVIQCKFRLPLKLICLPGQPSKTASHKITIDTNKSPVSLLSLFPGFASQSDDDQVNVMGFHFLGGARITVLASKTSQRYRIQSEQFEDLWLITNELILRLQEYFEKQGVKDFACSFSGSIPLQEYFELIDHHFELRINGEKLEELLSERAVQFRAIQRRLLARFKDKTPAPLQHLDTLLDGTYKQVIALADAVEENQGNLFQSFTRLKSATHLVILLIALWQKLSADQVAILEAAFLPLQEDTQELGWEETVDAAISHLLKTCLSKSSKEQALNLNSQLNIPKDTSQLKKHITLLCDRLSKGGRLCLSTDAAAPQTMVMPGGCTTIPESDLEERSVEQDSTELFTNHRHLTAETPRPEVSPLQGVSE
partner: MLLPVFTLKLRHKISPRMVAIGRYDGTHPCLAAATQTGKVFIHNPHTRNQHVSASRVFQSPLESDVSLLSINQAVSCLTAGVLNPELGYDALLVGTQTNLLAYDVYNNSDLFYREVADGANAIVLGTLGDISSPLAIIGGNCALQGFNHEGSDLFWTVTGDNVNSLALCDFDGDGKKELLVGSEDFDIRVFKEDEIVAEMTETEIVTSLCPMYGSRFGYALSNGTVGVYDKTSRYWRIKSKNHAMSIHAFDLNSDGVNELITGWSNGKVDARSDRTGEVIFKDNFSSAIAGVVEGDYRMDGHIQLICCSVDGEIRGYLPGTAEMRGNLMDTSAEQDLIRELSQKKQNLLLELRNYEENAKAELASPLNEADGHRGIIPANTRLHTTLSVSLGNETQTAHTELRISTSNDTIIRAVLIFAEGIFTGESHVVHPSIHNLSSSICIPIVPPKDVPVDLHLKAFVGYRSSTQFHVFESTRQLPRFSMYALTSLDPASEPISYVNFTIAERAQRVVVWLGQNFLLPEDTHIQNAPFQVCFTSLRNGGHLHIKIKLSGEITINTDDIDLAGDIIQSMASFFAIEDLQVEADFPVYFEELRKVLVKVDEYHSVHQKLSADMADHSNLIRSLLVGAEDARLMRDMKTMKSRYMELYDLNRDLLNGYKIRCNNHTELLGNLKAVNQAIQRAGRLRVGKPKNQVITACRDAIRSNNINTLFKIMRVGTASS
B2: Protein PTHB1 (Homo sapiens), Q3SYG4 (parent)
chain: B1 chain
partner: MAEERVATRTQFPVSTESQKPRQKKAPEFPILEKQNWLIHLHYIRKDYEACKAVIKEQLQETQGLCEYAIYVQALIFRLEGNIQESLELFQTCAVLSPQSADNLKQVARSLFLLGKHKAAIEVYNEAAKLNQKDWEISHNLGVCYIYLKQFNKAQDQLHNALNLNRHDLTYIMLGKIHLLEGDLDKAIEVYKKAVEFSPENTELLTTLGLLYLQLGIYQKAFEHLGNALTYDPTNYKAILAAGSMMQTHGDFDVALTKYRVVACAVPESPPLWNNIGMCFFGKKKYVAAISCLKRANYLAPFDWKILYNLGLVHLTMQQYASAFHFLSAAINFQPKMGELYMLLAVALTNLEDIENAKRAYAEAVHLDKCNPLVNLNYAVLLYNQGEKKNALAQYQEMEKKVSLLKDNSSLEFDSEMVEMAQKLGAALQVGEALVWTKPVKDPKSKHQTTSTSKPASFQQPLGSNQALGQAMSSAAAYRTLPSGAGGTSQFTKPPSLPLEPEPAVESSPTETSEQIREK

Variants of: B1
Settings: with bbs2_human BBS2, Q9BXC9

Row | effect of a mutation on the interaction | Variant
1 | with no effect | T861K
2 | with no effect | T861A
3 | with no effect | T861E
4 | with no effect | G884K
5 | with no effect | G884E
6 | with no effect | G884A
7 | with no effect | H869A
8 | with no effect | H869K
9 | with no effect | H869E
10 | with no effect | P875A
11 | with no effect | P875K
12 | with no effect | P875E
13 | with no effect | E853A
14 | with no effect | E853K
15 | with no effect | E887A
16 | with no effect | E887K
17 | with no effect | F864K
18 | with no effect | F864A
19 | with no effect | F864E
20 | with no effect | S886A
21 | with no effect | S886K
22 | with no effect | S886E
23 | with no effect | A872K
24 | with no effect | A872E
25 | with no effect | I846K

Variants of: B2
Settings: with bbs4_human BBS4, Q96RK4

Row | effect of a mutation on the interaction | Variant
26 | disrupting interaction strength | K554S
27 | with no effect | F472K
28 | with no effect | D572A
29 | with no effect | G718A
30 | with no effect | G718E
31 | with no effect | L757K
32 | with no effect | K810E
33 | with no effect | D711A
34 | with no effect | I451E
35 | with no effect | I657A
36 | with no effect | P877E
37 | with no effect | T845A
38 | with no effect | T428A
39 | with no effect | W741A
40 | disrupting interaction strength | G502R
41 | with no effect | G841E
42 | with no effect | V489K
43 | with no effect | V489E
44 | with no effect | G884E
45 | with no effect | K821E
46 | with no effect | T478E
